Here are results for 74 sequences from the supplement of paper PMC12636428.

The subject of the data set is Saccharomyces cerevisiae. Put plainly: transcriptional activation domain activity (GFP:mCherry ratio, weighted mean of sorted bins, harmonized to initial dataset scale) (arbitrary fluorescence ratio units); higher = stronger transcriptional activation. The settings on record: beta-estradiol 1 µM; induction time 4 h. Summed up: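 In diploid yeast carrying a GFP reporter, barcoded protein tiles fused to an estradiol-inducible synthetic transcription factor were integrated at the URA3 locus. Cultures diluted 1:5 into SC with 1 uM beta-estradiol were kept at 30 °C for 4 hours, then sorted by GFP:mCherry ratio into 8 bins before barcode sequencing. Tiles with under 50 reads were excluded. The activation activity reported here is the read-weighted mean of bin median fluorescence, averaged across barcodes and linearly rescaled to the initial dataset.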

Consider “LSDDEEEEGGKGREGEGRERKRRGREGKRKGGEERGRGRGREGEREGGEGEGG”, for which the “transcriptional activation domain activity” value was found to be 27300.

On to “LSELSSALDPTQAQYAYARIEYANDTESKRVKFILVIWIGEGTKVMRKARVSI”, for which the “transcriptional activation domain activity” value stood at 37600.

As for “LSEPMAKNPYYYLCVLARIVVVKFAMLLRIIYGVYVPIYTYSAYCFLTDITLF”, the “transcriptional activation domain activity” value is 62900.

Regarding “LSFLLSFPLPLIPHVLPSLFPCPLFLPLFPPSLPLSPFPPLPLFPPSPFFPLS”, the “transcriptional activation domain activity” value is 62300.

On to “LSFRFLDYTSLTHCVDYRNPALAFNILVTCLLFLILRPKPLVLYWCLVCIGFW”, for which the “transcriptional activation domain activity” value amounted to 44700.

On to “LSGLFSGYLCLFVSGFHIVMTEGILVIGYLVSPVFLFFFPLPFIFVMFPLHFV”, for which the “transcriptional activation domain activity” value turned out to be 76700.

“LSHFLAGLHHSVLLAYFLYFFVLPFSLLCYSIFLLYFSFGLDGIILLFYYFIF”: the “transcriptional activation domain activity” value came out at 37100.

In the case of “LSHSFFSSCCCLLRTLGRFLLFIIFFLSFYFFIFTFFFFFSFQTYLLLYLLLI”, the “transcriptional activation domain activity” value is 31400.

As for “LSHSFFSSCCCLLRTLGRFLLFIIFFLSFYFLPFFFSFQTYLLLYLLLIVYFH”, the “transcriptional activation domain activity” value turned out to be 29700.

“LSIFSWMSWIAPESLNLSTITGFNNGLGINPWPTWDWNTLLFDAADPLMIPFF”: the “transcriptional activation domain activity” value worked out at 39700.

For the sequence “LSILIYESIPERRQSSLARSDGISAMDVCVSLLVTLAHLSPLVSRFGGVTING”, the “transcriptional activation domain activity” value is 72500.

As to “LSILSSLSFSFLSSLSLSFFTLIPFLPLLLFLYSLYSHLFLLLSFILFPHPSL”, the “transcriptional activation domain activity” value was determined as 65400.

Turning to “LSIPLYGLGGPAFSDDDEGEDLIPEHERYIQEAIDGYWVLVLRILVSNRPRKT”, the “transcriptional activation domain activity” value worked out at 43800.

Take “LSIWVKYLGCIVRWRKVRIFGESILPIQLLVVVVLLTLRPCSICAPLKVLPYK”: the “transcriptional activation domain activity” value worked out at 66000.

For “LSKRPGKPPARPSPQAAVQRRSFHATSSALASKDPYKTLGVGKSASASEIKKA”, the “transcriptional activation domain activity” value worked out at 39500.

Turning to “LSLADFAWKLSDGEEKREQCGNVAQILLNTISHRVLRTIIRHLVAVVGVLTPS”, the “transcriptional activation domain activity” value came to 60000.

In the case of “LSLAGSNYFGICWNPAVKNCIPYDTYLLWIRCMPFWYLFVFLYDILPPILIVY”, the “transcriptional activation domain activity” value was found to be 52200.

As for “LSLLLQDRPRFIFGFSFLLLKSIWCIGFYFINSRLKCMCILYILLIDILYFTF”, the “transcriptional activation domain activity” value amounted to 49800.

On to “LSLLSLCLGILHSSFKTCFVLLFVLIHICICTLFLIFSFFTPLLTIPTYVTLS”, for which the “transcriptional activation domain activity” value was 57500.

Take “LSLLVLGCWIPCIVVMEGYLRSLTFESFPYPGLYCFTSQGSHIVYLCWVLVAV”: the “transcriptional activation domain activity” value is 46200.

With “LSLPPPLPFFPPLFPFFFLFFFYLLISFFFSFLFCGEMDLGWALQVAAATYSH”, the “transcriptional activation domain activity” value is 36700.

“LSLVLWCCGLKKSDLAIYLAWTFLVWPGPSPIFCHLSFLLLLLAFFLLPLLSV”: the “transcriptional activation domain activity” value was found to be 78100.

For “LSLWFLILGALSTTSSFFNIFILQWGVIRCCSVIGPGPCTESILGITQLAVQF”, the “transcriptional activation domain activity” value is 51100.

As for “LSLWSHTCRHYCSVIRCKHICMILCHIRANNSLIGMIGILLVLNCTILPSNRV”, the “transcriptional activation domain activity” value is 69900.

Take “LSLYRLSFPASFSLFSSFPSCLVAFPFPLPLPLPLPPSCSPFLLLLLLLLFFS”: the “transcriptional activation domain activity” value is 51900.

Turning to “LSNANHWKFIHIDEDGKLWRSNEFLLDLRLYNQDQVVIIYRFLHYVVKCCYES”, the “transcriptional activation domain activity” value was 54300.

Turning to “LSPGKPHQGMVRVRSPNNMVAFVNLLVRLCDLGFPAHWISDYVQSMLMDKVVT”, the “transcriptional activation domain activity” value stood at 66400.

Regarding “LSPHLPPHLPPRLYFAIDSDLFLLLLLPPFDICFYLSSLLVLIFFIYLLLEVH”, the “transcriptional activation domain activity” value was found to be 30600.

Consider “LSQNYLLTWDDSGDWLSLADAGVIAALLFRNNLSETWLDEFASWCRLLWYLRQ”, for which the “transcriptional activation domain activity” value stood at 58600.

Turning to “LSRAGTGGRAGTAKEAGEAAGGGEQQGEEAGGKEEAGAGAEGEAENGTGGKRN”, the “transcriptional activation domain activity” value came out at 23400.

Regarding “LSRGSCFVFWIFFSVPPPLFPFIYSYIFFFSFLLWFSVFVSVVFSFFSFWFFF”, the “transcriptional activation domain activity” value was 55700.

Regarding “LSRKASELRHATRNWALHSKHEEWNVSFRELARKYLIRPFLLMINPVCFLMSF”, the “transcriptional activation domain activity” value turned out to be 74700.

Take “LSRVTGKEHDQMCRIVLGILVDLRLPDNQNPTRLIWAVRALLDFLYLAQYPIH”: the “transcriptional activation domain activity” value was 67200.

On to “LSSFALLSSGYFLDVFFLFFCFFVFFVFPFLFLLSTVNTHAIFFFFLSFSFVI”, for which the “transcriptional activation domain activity” value came to 60300.

As to “LSSFFLGLLHIGFSLVGYLSLLRISPNVFSVLPRDHTWFNISRFLVLCTILPL”, the “transcriptional activation domain activity” value came to 59300.

Turning to “LSSLPPSAPPFPPPSPLPPPLCFPLPPLFPPFLPSLSFPLSPPPSHFPFPLIP”, the “transcriptional activation domain activity” value came to 27100.

“LSSSPSAQIATNTNVVFILGSDDKRVKEVGDALKTKLGVKGGGKGSKWSGKFG”: the “transcriptional activation domain activity” value turned out to be 33200.

Regarding “LSSSPSAQMATNTNVVVVIGDDKRVKEVGDALKTKLGVKGGGKGMRWSGKFVG”, the “transcriptional activation domain activity” value came out at 26700.

On to “LSSSPSSQSASSTSTVLVVGTDDKKVKEAGDELKSKLGVKGGGKGPRWSGKFT”, for which the “transcriptional activation domain activity” value was found to be 23800.

As to “LSSSSSVQTSAATTVVLVSGSDDKLVKAAGDALRARLGVKGGGKGQKWSGKFT”, the “transcriptional activation domain activity” value came to 17600.

In the case of “LSSSVPIEAETFSSFRPDMNMTMNMNLHNASTSSFNNEAFWKPLDSAIDHHSG”, the “transcriptional activation domain activity” value was determined as 53500.

In the case of “LSSYLLKNALDVFCKYLPHVSKPVETVFKVKRKYSWMVLFLLYCILTHTNYHC”, the “transcriptional activation domain activity” value came out at 26800.

As to “LSTLFYIFCRYALVANFLYSLSIIKGSHIINCDIGYMICGVLSIFGHIGIIAV”, the “transcriptional activation domain activity” value was determined as 49800.

Consider “LSTVLKWSYEEIQVHIMTMRKEILNRRNHAYYDMYVLLLQLLLHIADSLTRGS”, for which the “transcriptional activation domain activity” value amounted to 45500.

“LSVSLVYNSAYLLQRISFWVISFSTYTLPTWLFTLFSTSLTFTMNFTTLLIIV”: the “transcriptional activation domain activity” value was found to be 78700.

As for “LSVSVQGGQLQLRGLNITLTRCHDFMRNIFPLDFPQGRLLALILSLRLFFLST”, the “transcriptional activation domain activity” value stood at 84500.

Take “LSVVHISAPGYQAFFLLQSFRYILLWVLSFLSHFFLPFFLLCQGCFLVQHLPT”: the “transcriptional activation domain activity” value was 54000.

As to “LSYCHRPVFTCCDLYRTCLYCSIFYLLSFPILLPPSISLHIILLFSHTILIIL”, the “transcriptional activation domain activity” value was determined as 31700.

On to “LTDIQRASKLFRVMQDFRYLRLLVHRITLWIDDQHCASLGTNIYYTFLMRGRF”, for which the “transcriptional activation domain activity” value amounted to 53200.

For the sequence “LTDWNVVSNKPITGPADPNEDVYIGRSETAMWMRVVSSWVCMLLYSWSLLAPV”, the “transcriptional activation domain activity” value is 68000.

Regarding “LTEHSNVNSVIWTNDLLNLNFTNILNMGLYINPKNLIPISGNNNNNKSNEEDD”, the “transcriptional activation domain activity” value worked out at 62300.

Regarding “LTEVTSPRFIASIIACLCNHFAWFFYFIDPHHYHALFTPVEICLFFLVVVWFV”, the “transcriptional activation domain activity” value stood at 52100.

With “LTHEFRMGLIPLGLVALLSSGTTLTLICFICWRLVTWKLHYNTFLGYNQYVLL”, the “transcriptional activation domain activity” value came out at 50400.

For the sequence “LTHEPSKPPRRVPYTTLLHTVPLLIILTVLSAVVCYVHILLLRVFVKPVVIGT”, the “transcriptional activation domain activity” value turned out to be 46600.

As for “LTHGRERSLIWKAKSSLNKWMFLVLRYFALLDLMFTVAVDTNFHVKYNTPFCI”, the “transcriptional activation domain activity” value turned out to be 72400.

For the sequence “LTHLRQLLEVKRTRRSLFVFRKTLGRIIRPVITWTYIFFFTLSMWTKPIVPLI”, the “transcriptional activation domain activity” value turned out to be 36900.

With “LTKKALDRLLGGDLSSLVAATISVSDWILDVAISSHDRISCILVTAHNTVLQA”, the “transcriptional activation domain activity” value amounted to 35700.

Regarding “LTLFVHFVKLSGILGEVLRRIYSPKAKINGYRTKTMSQTVWSLQRMLNEWLTN”, the “transcriptional activation domain activity” value stood at 53300.

For “LTNLNEIDFTNMFCNDNFIQNYNQGLMELLTEPTPGPSSSSCILPSTPTRPLS”, the “transcriptional activation domain activity” value was 83000.

Turning to “LTPFSPPHFPLFLPSILFSFPPPLSSHFLLFPYALSPLLLLLFPPLCSSQFTP”, the “transcriptional activation domain activity” value worked out at 45700.

Consider “LTPSSEQVIPACSTRTSTARASAGPSTKGAASRPSSSVSTRSRAPTPSSKKSC”, for which the “transcriptional activation domain activity” value is 29300.

For “LTQRNTCITGGPFWFFFFFFCLLVFSLPPSLKLFPTLPRITCLFSHVFFFFFP”, the “transcriptional activation domain activity” value amounted to 15700.

As to “LTQSRGFIWPPILLAVFFSALGGFYWWSASFFLLASPVAFAPCLFWVLLLFLF”, the “transcriptional activation domain activity” value amounted to 18000.

Consider “LTVLGWLSTRKNMSFKSTPSNIRQSLKYSHIPLCLFYSSFTKFFLLLLLSIWD”, for which the “transcriptional activation domain activity” value came to 42100.

For the sequence “LTWDVFKLALFFCLFQDISFSFCTFLLCFFLICFAYIVYPLSLSLLNGVLFDP”, the “transcriptional activation domain activity” value was found to be 44900.

In the case of “LTYRVYIMGIGIWMTYLGIGWFLCIILPFLFRFCRLMFWWRKLCFLQALFFFF”, the “transcriptional activation domain activity” value came to 62200.

Take “LVAFGMRFGGPTLLKLYFLPWMACHLIFALVPVIITLPMQWANHWIVALTYLH”: the “transcriptional activation domain activity” value was found to be 57900.

On to “LVANDIIMGIALGSHIIENSELAATWVDTIFSTWSVDGLRRMIVWLMGWPGGL”, for which the “transcriptional activation domain activity” value came to 27800.

Take “LVDVFGRIESCFQRIGIYTRVPPTTEMMDMIIQIMVEVLTILGIATKEMKQSR”: the “transcriptional activation domain activity” value came to 63000.

With “LVEFLFAVNDEVANVLLVFFCVFVAGYFILTSLPLLFQQCPFQTPLTSFFWYA”, the “transcriptional activation domain activity” value was 38600.

Consider “LVGALGPPGGLYSSSAGDTQERRRRREGERALKGFEVGDKWAGEVARRLRRTA”, for which the “transcriptional activation domain activity” value is 60100.

For “LVGDANGCRVLPAFQLWPLLSTFNLLYSISSTSWLLYWVFTSLCYPAIFLVCL”, the “transcriptional activation domain activity” value is 55700.

On to “LVGLDGRAKINCHFFAYVAFGSASLLVVFHVAFLINVSDVVLLLVMLVGLLRL”, for which the “transcriptional activation domain activity” value worked out at 31900.

“LVGLIGTLVAEPGLGADRFLLCFLFLSYYTLLTPSNLLVGIFWLVFFVLQLGY”: the “transcriptional activation domain activity” value was determined as 39700.
